The record followed here is doi:10.1101/2021.06.14.448436.

The target of the test is human angiotensin-converting enzyme 2 (human) (UniProt Q9BYF1). The test is described as follows: SPR.
UniProt Q9BYF1, sequence (Q9BYF1 18-805): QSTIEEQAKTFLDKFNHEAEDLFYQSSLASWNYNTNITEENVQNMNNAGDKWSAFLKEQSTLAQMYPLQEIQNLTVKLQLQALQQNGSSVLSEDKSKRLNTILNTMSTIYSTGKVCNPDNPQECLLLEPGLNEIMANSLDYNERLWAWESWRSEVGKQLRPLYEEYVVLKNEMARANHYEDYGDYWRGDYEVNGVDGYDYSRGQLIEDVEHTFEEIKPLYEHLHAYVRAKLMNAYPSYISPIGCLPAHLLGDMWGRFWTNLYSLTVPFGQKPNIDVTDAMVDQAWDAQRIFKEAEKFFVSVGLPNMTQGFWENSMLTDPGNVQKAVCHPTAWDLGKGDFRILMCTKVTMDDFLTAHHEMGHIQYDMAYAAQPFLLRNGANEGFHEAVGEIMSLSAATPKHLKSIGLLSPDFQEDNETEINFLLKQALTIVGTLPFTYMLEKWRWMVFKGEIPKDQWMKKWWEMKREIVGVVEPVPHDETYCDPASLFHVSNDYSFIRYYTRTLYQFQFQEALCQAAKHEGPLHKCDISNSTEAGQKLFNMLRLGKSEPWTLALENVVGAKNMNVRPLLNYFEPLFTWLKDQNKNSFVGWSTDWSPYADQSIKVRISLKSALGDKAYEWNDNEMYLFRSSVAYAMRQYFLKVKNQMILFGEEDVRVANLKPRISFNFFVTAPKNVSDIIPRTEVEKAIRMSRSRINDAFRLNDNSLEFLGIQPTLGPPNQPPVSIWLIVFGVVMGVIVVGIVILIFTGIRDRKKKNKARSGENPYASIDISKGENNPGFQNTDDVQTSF

With “SARS-CoV-2 trimeric Spike protein, wild-type, prefusion-stabilised”, the dissociation constant Kd (commonly the free concentration of one partner at which half of the binding sites on the other are occupied at equilibrium, for simple one-to-one binding) was found to be 6.4 nM.
